From the supplement of paper PMC5998384

Columns and labels:
HeLa Kyoto [1] = assay: solubility in G1/S (NP-40 vs SDS abundance) (log2 ratio); higher = more soluble; details: cell cycle stage: G1/S
HeLa Kyoto [2] = assay: solubility change mitosis vs G1/S (difference of NP-40 vs SDS log2 ratios) (log2 ratio difference); higher = more soluble in mitosis
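For solubility change mitosis vs G1/S (difference of NP-40 vs SDS log2 ratios) in this document: synchronized HeLa Kyoto cells (double thymidine block for G1/S, nocodazole release for mitosis), protein amounts in NP-40 versus SDS lysates quantified by mass spectrometry, three biological replicates.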
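For solubility in G1/S (NP-40 vs SDS abundance) in this document: HeLa Kyoto cells arrested at G1/S by double thymidine block, proteins quantified by TMT10plex mass spectrometry in mild NP-40 versus SDS extracts, three biological replicates.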

Question: Which “solubility in G1/S (log2)” value (HeLa Kyoto [1]) does the source give for “MEPRRAAPGVPGWGSREAAGSASAAELVYHLAGALGTELQDLARRFGPEAAAGLVPLVVRALELLEQAAVGPAPDSLQVSAQPAEQELRRLREENERLRRELRAGPQEERALLRQLKEVTDRQRDELRAHNRDLRQRGQETEALQEQLQRLLLVNAELRHKLAAMQTQLRAAQDRERERQQPGEAATPQAKERARGQAGRPGHQHGQEPEWATAGAGAPGNPEDPAEAAQQLGRPSEAGQCRFSREEFEQILQERNELKAKVFLLKEELAYFQRELLTDHRVPGLLLEAMKVAVRKQRKKIKAKMLGTPEEAESSEDEAGPWILLSDDKGDHPPPPESKIQSFFGLWYRGKAESSEDETSSPAPSKLGGEEEAQPQSPAPDPPCSALHEHLCLGASAAPEA [RILP]” here?
Answer: The value was 0.551.

Question: And the “solubility change mitosis (log2)” value (HeLa Kyoto [2])?
Answer: The value was 0.11.

Question: How did the “solubility in G1/S (log2)” value (HeLa Kyoto [1]) turn out when “MEQRRVTDFFARRRPGPPRIAPPKLACRTPSPARPALRAPASATSGSRKRARPPAAPGRDQARPPARRRLRLSVDEVSSPSTPEAPDIPACPSPGQKIKKSTPAAGQPPHLTSAQDQDTISELASCLQRARELGARVRALKASAQDAGESCTPEAEGRPEEPCGEKAPAYQRFHALAQPGLPGLVLPYKYQVLAEMFRSMDTIVGMLHNRSETPTFAKVQRGVQDMMRRRFEECNVGQIKTVYPASYRFRQERSVPTFKDGTRRSDYQLTIEPLLEQEADGAAPQLTASRLLQRRQIFSQKLVEHVKEHHKAFLASLSPAMVVPEDQLTRWHPRFNVDEVPDIEPAALPQPPATEKLTTAQEVLARARNLISPRMEKALSQLALRSAAPSSPGSPRPALPATPPATPPAASPSALKGVSQDLLERIRAKEAQKQLAQMTRCPEQEQRLQRLERLPELARVLRSVFVSERKPALSMEVACARMVGSCCTIMSPGEMEKHLLLLSELLPDWLSLHRIRTDTYVKLDKAADLAHITARLAHQTRAEEGL [CDT1]” was run?
Answer: Its value is 0.0981.

Question: And the “solubility change mitosis (log2)” value (HeLa Kyoto [2])?
Answer: Its value is 0.575.

Question: Which results are given for “MERPSLRALLLGAAGLLLLLLPLSSSSSSDTCGPCEPASCPPLPPLGCLLGETRDACGCCPMCARGEGEPCGGGGAGRGYCAPGMECVKSRKRRKGKAGAAAGGPGVSGVCVCKSRYPVCGSDGTTYPSGCQLRAASQRAESRGEKAITQVSKGTCEQGPSIVTPPKDIWNVTGAQVYLSCEVIGIPTPVLIWNKVKRGHYGVQRTELLPGDRDNLAIQTRGGPEKHEVTGWVLVSPLSKEDAGEYECHASNSQGQASASAKITVVDALHEIPVKKGEGAEL [IGFBP7]”?
Answer: solubility in G1/S (log2) (HeLa Kyoto [1]): 0.0794; solubility change mitosis (log2) (HeLa Kyoto [2]): 0.407

Question: For “MESETEPEPVTLLVKSPNQRHRDLELSGDRGWSVGHLKAHLSRVYPERPRPEDQRLIYSGKLLLDHQCLRDLLPKQEKRHVLHLVCNVKSPSKMPEINAKVAESTEEPAGSNRGQYPEDSSSDGLRQREVLRNLSSPGWENISRPEAAQQAFQGLGPGFSGYTPYGWLQLSWFQQIYARQYYMQYLAATAASGAFVPPPSAQEIPVVSAPAPAPIHNQFPAENQPANQNAAPQVVVNPGANQNLRMNAQGGPIVEEDDEINRDWLDWTYSAATFSVFLSILYFYSSLSRFLMVMGATVVMYLHHVGWFPFRPRPVQNFPNDGPPPDVVNQDPNNNLQEGTDPETEDPNHLPPDRDVLDGEQTSPSFMSTAWLVFKTFFASLLPEGPPAIAN [HERPUD1]”, which “solubility in G1/S (log2)” value (HeLa Kyoto [1]) is on record?
Answer: The value was 0.0523.

Question: And the “solubility change mitosis (log2)” value (HeLa Kyoto [2])?
Answer: Its value is -0.0685.

Question: Which results are given for “MESKGASSCRLLFCLLISATVFRPGLGWYTVNSAYGDTIIIPCRLDVPQNLMFGKWKYEKPDGSPVFIAFRSSTKKSVQYDDVPEYKDRLNLSENYTLSISNARISDEKRFVCMLVTEDNVFEAPTIVKVFKQPSKPEIVSKALFLETEQLKKLGDCISEDSYPDGNITWYRNGKVLHPLEGAVVIIFKKEMDPVTQLYTMTSTLEYKTTKADIQMPFTCSVTYYGPSGQKTIHSEQAVFDIYYPTEQVTIQVLPPKNAIKEGDNITLKCLGNGNPPPEEFLFYLPGQPEGIRSSNTYTLTDVRRNATGDYKCSLIDKKSMIASTAITVHYLDLSLNPSGEVTRQIGDALPVSCTISASRNATVVWMKDNIRLRSSPSFSSLHYQDAGNYVCETALQEVEGLKKRESLTLIVEGKPQIKMTKKTDPSGLSKTIICHVEGFPKPAIQWTITGSGSVINQTEESPYINGRYYSKIIISPEENVTLTCTAENQLERTVNSLNVSAISIPEHDEADEISDENREKVNDQAKLIVGIVVGLLLAALVAGVVYWLYMKKSKTASKHVNKDLGNMEENKKLEENNHKTEA [ALCAM]”?
Answer: solubility in G1/S (log2) (HeLa Kyoto [1]): 0.38; solubility change mitosis (log2) (HeLa Kyoto [2]): -0.0197

Question: How did the “solubility in G1/S (log2)” value (HeLa Kyoto [1]) turn out when “MESRDHNNPQEGPTSSSGRRAAVEDNHLLIKAVQNEDVDLVQQLLEGGANVNFQEEEGGWTPLHNAVQMSREDIVELLLRHGADPVLRKKNGATPFILAAIAGSVKLLKLFLSKGADVNECDFYGFTAFMEAAVYGKVKALKFLYKRGANVNLRRKTKEDQERLRKGGATALMDAAEKGHVEVLKILLDEMGADVNACDNMGRNALIHALLSSDDSDVEAITHLLLDHGADVNVRGERGKTPLILAVEKKHLGLVQRLLEQEHIEINDTDSDGKTALLLAVELKLKKIAELLCKRGASTDCGDLVMTARRNYDHSLVKVLLSHGAKEDFHPPAEDWKPQSSHWGAALKDLHRIYRPMIGKLKFFIDEKYKIADTSEGGIYLGFYEKQEVAVKTFCEGSPRAQREVSCLQSSRENSHLVTFYGSESHRGHLFVCVTLCEQTLEACLDVHRGEDVENEEDEFARNVLSSIFKAVQELHLSCGYTHQDLQPQNILIDSKKAAHLADFDKSIKWAGDPQEVKRDLEDLGRLVLYVVKKGSISFEDLKAQSNEEVVQLSPDEETKDLIHRLFHPGEHVRDCLSDLLGHPFFWTWESRYRTLRNVGNESDIKTRKSESEILRLLQPGPSEHSKSFDKWTTKINECVMKKMNKFYEKRGNFYQNTVGDLLKFIRNLGEHIDEEKHKKMKLKIGDPSLYFQKTFPDLVIYVYTKLQNTEYRKHFPQTHSPNKPQCDGAGGASGLASPGC [RNASEL]” was run?
Answer: Its value is -0.104.

Question: And the “solubility change mitosis (log2)” value (HeLa Kyoto [2])?
Answer: Its value is -0.0377.

Question: Which “solubility in G1/S (log2)” value (HeLa Kyoto [1]) does the source give for “MESTPSRGLNRVHLQCRNLQEFLGGLSPGVLDRLYGHPATCLAVFRELPSLAKNWVMRMLFLEQPLPQAAVALWVKKEFSKAQEESTGLLSGLRIWHTQLLPGGLQGLILNPIFRQNLRIALLGGGKAWSDDTSQLGPDKHARDVPSLDKYAEERWEVVLHFMVGSPSAAVSQDLAQLLSQAGLMKSTEPGEPPCITSAGFQFLLLDTPAQLWYFMLQYLQTAQSRGMDLVEILSFLFQLSFSTLGKDYSVEGMSDSLLNFLQHLREFGLVFQRKRKSRRYYPTRLAINLSSGVSGAGGTVHQPGFIVVETNYRLYAYTESELQIALIALFSEMLYRFPNMVVAQVTRESVQQAIASGITAQQIIHFLRTRAHPVMLKQTPVLPPTITDQIRLWELERDRLRFTEGVLYNQFLSQVDFELLLAHARELGVLVFENSAKRLMVVTPAGHSDVKRFWKRQKHSS [GTF2H4]” here?
Answer: The value was -0.135.

Question: And the “solubility change mitosis (log2)” value (HeLa Kyoto [2])?
Answer: The value was 0.00292.

Question: What does the source list for “METDESPSPLPCGPAGEAVMESRARPFQALPREQSPPPPLQTSSGAEVMDVGSGGDGQSELPAEDPFNFYGASLLSKGSFSKGRLLIDPNCSGHSPRTARHAPAVRKFSPDLKLLKDVKISVSFTESCRSKDRKVLYTGAERDVRAECGLLLSPVSGDVHACPFGGSVGDGVGIGGESADKKDEENELDQEKRVEYAVLDELEDFTDNLELDEEGAGGFTAKAIVQRDRVDEEALNFPYEDDFDNDVDALLEEGLCAPKKRRTEEKYGGDSDHPSDGETSVQPMMTKIKTVLKSRGRPPTEPLPDGWIMTFHNSGVPVYLHRESRVVTWSRPYFLGTGSIRKHDPPLSSIPCLHYKKMKDNEEREQSSDLTPSGDVSPVKPLSRSAELEFPLDEPDSMGADPGPPDEKDPLGAEAAPGALGQVKAKVEVCKDESVDLEEFRSYLEKRFDFEQVTVKKFRTWAERRQFNREMKRKQAESERPILPANQKLITLSVQDAPTKKEFVINPNGKSEVCILHEYMQRVLKVRPVYNFFECENPSEPFGASVTIDGVTYGSGTASSKKLAKNKAARATLEILIPDFVKQTSEEKPKDSEELEYFNHISIEDSRVYELTSKAGLLSPYQILHECLKRNHGMGDTSIKFEVVPGKNQKSEYVMACGKHTVRGWCKNKRVGKQLASQKILQLLHPHVKNWGSLLRMYGRESSKMVKQETSDKSVIELQQYAKKNKPNLHILSKLQEEMKRLAEEREETRKKPKMSIVASAQPGGEPLCTVDV [DGCR8]”?
Answer: solubility in G1/S (log2) (HeLa Kyoto [1]): -0.452; solubility change mitosis (log2) (HeLa Kyoto [2]): 0.0203

Question: Which results are given for “METMRAQRLQPGVGTSGRGTLRALRPGVTGAAAATATPPAGPPPAPPPPAPPPPPLLLSGAPGLPLPPGAAGSPAVLREAVEAVVRSFAKHTQGYGRVNVVEALQEFWQMKQSRGADLKNGALVVYEMVPSNSPPYVCYVTLPGGSCFGSFQFCPTKAEARRSAAKIALMNSVFNEHPSRRITDEFIEKSVSEALASFNGNREEADNPNTGIGAFRFMLESNKGKSMLEFQELMTVFQLLHWNGSLKAMRERQCSRQEVLAHYSHRALDDDIRHQMALDWVSREQSVPGALSRELASTERELDEARLAGKELRFHKEKKDILVLAAGQLGNMHSSNC [LIX1L]”?
Answer: solubility in G1/S (log2) (HeLa Kyoto [1]): 0.528; solubility change mitosis (log2) (HeLa Kyoto [2]): -0.1

Question: Which results are given for “MFSAGAESLLHQAREIQDEELKKFCSRICKLLQAEDLGPDTLDSLQRLFLIISATKYSRRLEKTCVDLLQATLGLPACPEQLQVLCAAILREMSPSDSLSLAWDHTQNSRQLSLVASVLLAQGDRNEEVRAVGQGVLRALESRQPEGPSLRHLLPVMAKVVVLSPGTLQEDQATLLSKRLVDWLRYASLQQGLPHSGGFFSTPRARQPGPVTEVDGAVATDFFTVLSSGHRFTDDQWLNVQAFSMLRAWLLHSGPEGPGTLDTDDRSEQEGSTLSVISATSSAGRLLPPRERLREVAFEYCQRLIEQSNRRALRKGDSDLQKACLVEAVLVLDVLCRQDPSFLYRSLSCLKALHGRVRGDPASVRVLLPLAHFFLSHGEAAAVDSEAVYQHLFTRIPVEQFHSPMLAFEFIQFCRDNLHLFSGHLSTLRLSFPNLFKFLAWNSPPLTSEFVALLPALVDAGTALEMLHALLDLPCLTAVLDLQLRSAPAASERPLWDTSLRAPSCLEAFRDPQFQGLFQYLLRPKASGATERLAPLHQLLQPMAGCARVAQCAQAVPTLLQAFFSAVTQVADGSLINQLALLLLGRSDSLYPAPGYAAGVHSVLSSQFLALCTLKPSLVVELARDLLEFLGSVNGLCSRASLVTSVVWAIGEYLSVTYDRRCTVEQINKFFEALEALLFEVTQCRPSAALPRCPPQVVTVLMTTLTKLASRSQDLIPRASLLLSKMRTLAHSPATSSTHSEEGAEAIRTRATELLTLLKMPSVAQFVLTPSTEVCSPRYHRDANTALPLALRTVSRLVEREAGLMPG [AP5Z1]”?
Answer: solubility in G1/S (log2) (HeLa Kyoto [1]): 0.134; solubility change mitosis (log2) (HeLa Kyoto [2]): -0.0926

Question: How did the “solubility in G1/S (log2)” value (HeLa Kyoto [1]) turn out when “MFSALKKLVGSDQAPGRDKNIPAGLQSMNQALQRRFAKGVQYNMKIVIRGDRNTGKTALWHRLQGRPFVEEYIPTQEIQVTSIHWSYKTTDDIVKVEVWDVVDKGKCKKRGDGLKMENDPQEAESEMALDAEFLDVYKNCNGVVMMFDITKQWTFNYILRELPKVPTHVPVCVLGNYRDMGEHRVILPDDVRDFIDNLDRPPGSSYFRYAESSMKNSFGLKYLHKFFNIPFLQLQRETLLRQLETNQLDMDATLEELSVQQETEDQNYGIFLEMMEARSRGHASPLAANGQSPSPGSQSPVVPAGAVSTGSSSPGTPQPAPQLPLNAAPPSSVPPVPPSEALPPPACPSAPAPRRSIISRLFGTSPATEAAPPPPEPVPAAEGPATVQSVEDFVPDDRLDRSFLEDTTPARDEKKVGAKAAQQDSDSDGEALGGNPMVAGFQDDVDLEDQPRGSPPLPAGPVPSQDITLSSEEEAEVAAPTKGPAPAPQQCSEPETKWSSIPASKPRRGTAPTRTAAPPWPGGVSVRTGPEKRSSTRPPAEMEPGKGEQASSSESDPEGPIAAQMLSFVMDDPDFESEGSDTQRRADDFPVRDDPSDVTDEDEGPAEPPPPPKLPLPAFRLKNDSDLFGLGLEEAGPKESSEEGKEGKTPSKEKKKKKKKGKEEEEKAAKKKSKHKKSKDKEEGKEERRRRQQRPPRSRERTAADELEAFLGGGAPGGRHPGGGDYEEL [RABL6]” was run?
Answer: The value was 0.183.

Question: What about the “solubility change mitosis (log2)” value (HeLa Kyoto [2]) of the same sequence?
Answer: Its value is -0.0863.
